Assay: yeast display, Sf9 membrane polyspecificity reagent, FACS + sequencing; frameworks hold sequencing errors
Procedure, shortened: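 Galactose induction of a Saccharomyces cerevisiae BJ5465 synthetic nanobody display library ran 36–48 hours. The cells were then stained for 1 hour at 4 °C with 10% biotinylated, detergent-solubilized Sf9 membrane reagent, pulled down on streptavidin microbeads and FACS-sorted into low and high (top ~1%) gates on expression and reagent-binding fluorescence. Labels for polyreactivity follow the gate of origin.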

Sequence	polyreactivity (PSR sort gate)
QVQLVESGGGLVQAGGSLRLSFAASGRIFPFYAMGWYRQEPGKERELVAALSWNGGSTFYADSVKGRFTISRDNAKNSVYLQMNSLKPEDTAVYYCAADCYATYFLYDSCGQGTQVTVSS	low polyreactivity
QVQLVESGGGLVQAGGSLRLSFAASGRTFDRYDMGWYRQAPGKERELVATISSSGGSTYYADSVKGRFTISRDNAKNTVYLQMNSLKPEDTAVYYCAADPSGDYWGQGTQVTVSS	low polyreactivity
QVQLVESGGGLVQAGGSLRLSFAASGSIFVKYAMGWYRQAPGKERELVAAITTGVGSTYYADSLKGRFTISRDNAKNTVYLQMNSLKPEDTAVYYCAVRPPRVRTVFYGGNYWGQGTQVTVSS	low polyreactivity
QVQLVESGGGLVQAGGSLRLSFAASGSIFYYYAMGWYRQAPGKERELVAAINYSGGSTYADSVKGRFTISLDNAKNTVYLQMNSLKPEDTAVYYCATRLYGYWPYGFEYWGQGTQVTVSS	low polyreactivity
QVQLVESGGGLVQAGGSLRLSFAASGSIINAYAMGWYRQAPGKERELVAAINSGGTTYYADSVKGRFTISRDNAKNTVYLQLNSLKPEDTAVYYCAKTRSYGRSGVSRRDGFYYWGQGTQVTVSS	high polyreactivity
QVQLVESGGGLVQAGGSLRLSFAASGSTFRRYDMGWYRQAPGKERELVADISDRGSRTYYADSVKGRFTISRDNAKKTVYFQMNSLEPEYTAVYYCAAEAVGNTSPGDYWGQGTQVTVSS	high polyreactivity
QVQLVESGGGLVQAGGSLRLSFAPSGRIVPNAMGWYRQAPGKDREMVAAISRSGGSTYYADSVKGRFTISRDNAKNTVYLQMNSLKPEDTAVYYCAKRSTSQSLQGEYWGQGTQVTVSS	high polyreactivity
QVQLVESGGGLVQAGGSLRLSFDASGSIFSFYAMGGYSQAPGKERELVAAIRWSGGRTYYADSVKGRFTISRDPAKNTVYLQMNSLKPEDTAVYYCAADKYLDYDYWGQGTQVTVSS	high polyreactivity
QVQLVESGGGLVQAGGSLRLSFSASGSTFTSNAMGWYRQAPGKERELVASISGSGGRTYYADSVKGRFTISRDNAKNTVYLQMNSLKPEDTAVYYCNAESRNLYSTQFDYWGQGTQVTVSS	low polyreactivity
QVQLVESGGGLVQAGGSLRLSGAAKGSTFRQYAMGWYRQATGKERELVAAISSGGRTNYPDSVKGRFTISRDNAKNTVYFHMNSQKPVDTAVYYSAARFYFQFRRFRRMDYWGQGTQVTVSS	high polyreactivity
QVQLVESGGGLVQAGGSLRLSGAASGRIFYSNAMGWYRQAHGKERELVAAITRAGSTNYADSVKGSFTISRDIAKNTVYLQMNSLKPDDTAVYDCAATYGCSVFEYDYWGQGTQVTVSS	low polyreactivity
QVQLVESGGGLVQAGGSLRLSGAASGRNFSTNAMGWYRPAPGKERELVAAITSGGNTYADSVKGRFTISRDNAKNTVYLQMNSLKPEDTAVYYCAARLYWGRYNYWGQGTQVTVSS	high polyreactivity
QVQLVESGGGLVQAGGSLRLSGAASGRTFVSYTMGWYRQAPGKERQLVAAISDDGDSTYYADSVKGRFTISRDYAKNTVYLQMNSLKPEDTAVYYCAAGEYQYFWFPFDYWGQGTQVTVSS	low polyreactivity
QVQLVESGGGLVQAGGSLRLSGAASGRTLYCYAMGWSRQAPGKEREFVAAMSRSGGSTYYADSVKGRFTISRDNAKNTVYLQMNRLKPEETAVYYCADDRSFLQIYKAGPQYRSNYWGQGTQVTVSS	high polyreactivity
QVQLVESGGGLVQAGGSLRLSGAASGSIFRDNGMGWYRPAPGKERELVAAINSGDSTYYADSVKGRFTISRDNAKNTVYLQLNSLKPEDTAVYYCNADDRRALSQRQYDWYDYWGQGTQVTVSS	low polyreactivity
QVQLVESGGGLVQAGGSLRLSGAASGSTFIINAMGWSSQAPGKELELVAAISGRGTRTYYADSVKGRFTISRDNAKNTVYLQMNSLNPEDTAVYSCAALDTAGPYNTLDIYDHWGQGTQVTVSS	high polyreactivity
QVQLVESGGGLVQAGGSLRLSGAASGYIFLGNAMGWYRQAPGKERELVAAISRSGGSTYYADSVKGRFTISRDNAKNTVYFHMNSLKPEYTAVYYCAADLPNPKWYGYDYWGQGTQVNVSS	high polyreactivity
QVQLVESGGGLVQAGGSLRLSGDASGSTFIYNAMGWYRQAPGKERELVAAIDWSGGDTYYADSVKGRFTISRDKAKNTVYLLMNSLKPEDTAVYYCAAVKRGGFYWGQGTQVTVSS	high polyreactivity
QVQLVESGGGLVQAGGSLRLSRAASGFTLAYYAMGWYRQAPGKERELVAAITADTGTTYYADSVKGRFTISRDNAKNTVYLQMNSLKPEDTAVYYCATRDVFYDDDYWGQGTQVTVSS	high polyreactivity
QVQLVESGGGLVQAGGSLRLSRAASGRSYVYAMGWYRQAPGTETEVVAAISTISSSTYYADSVKGRFTISRDNAKNTVYLQMNSLKPEDTAVYYCAADYSQYYYYGWIDSDYWGQGTQVTVSS	high polyreactivity
QVQLVESGGGLVQAGGSLRLSRAASGSTFSGYTMGWYRQAPGKERELVAAISTSGGRTSYADSVKGRFTISRDNAKTSVYLQMNSLKPEDTAVYYCAARRWERRVRPGYYPYDYWGQGTQVTVSS	high polyreactivity

Sequence	polyreactivity (PSR sort gate)
QVQLVESGGGLVQAGGSLRLSSAAAGRLLSRDAMGWYRQAPGKERELVATLSSGGGTYYADSVKGRFTISRDNSKNTVYLQMNSLKRVDTAVYYCAVQAWYGRYYYWGQGTQVTVSS	high polyreactivity
QVQLVESGGGLVQAGGSLRLSSAACGTIFVLNAMGWYRPAPGKERELVAAITNVGSTYYADSVKGRFTISRDNAKNTFYLQMNSLKPEDTAVYYCNADPGEVLVGYDYWGQGTQVTVSS	low polyreactivity
QVQLVESGGGLVQAGGSLRLSSAASGFIFNTNAMGWYRQAPGKERELVAAISGGGSTYYAVSVKGRFTLSRDNAKQTVYLQMNSLKPDDTAVYYCAAVPFYRYDYWGQGTQVTVSS	low polyreactivity
QVQLVESGGGLVQAGGSLRLSSAASGFTFGSYAMGWYRQAPGKERELVAAIRASGGRTYYADSVKGRFTISRDNAKNTVYLQMNSLKPEDTAVYYCAAQLPMGKRYYYWGQGTQVTVSS	high polyreactivity
QVQLVESGGGLVQAGGSLRLSSAASGFTFNANAMGWYRQAPGKERELVAVITRSGGRTYYADSVKGRFTISRDNAKNTVYLQMNSLKPEDTAVYYCAADIGYTYEYYYWGQGTQVTVSS	high polyreactivity
QVQLVESGGGLVQAGGSLRLSSAASGFTFPWYAMGWYSQAPGKEREVVAVISSSGGSTYYADSVKGRFTISRDNAKNTVYLQMNSLKPEDTAVYYCARAYGGRGYDIRYDYWGKGTQVTVSS	high polyreactivity
QVQLVESGGGLVQAGGSLRLSSAASGFTFSHYAMGWYRQAPGKERELVAAITWSGGSTYYADSVKGRFTISRDNAKNTVYLQINSLKPEDTAVYYCAAESYLDGGEYWGQGTQVTVSS	high polyreactivity
QVQLVESGGGLVQAGGSLRLSSAASGFTFVINDMGWYRQAPGKEMELVADITSGGDTYYADSVKGRFTISRDNAKNTVYLQMNSLKPEDTAVYYCAADIYPDWIYLLYGYWGQGTQGTVSS	low polyreactivity
QVQLVESGGGLVQAGGSLRLSSAASGFTFVNYAMGWYRQAPGKERELVAAITRGGSTYYADSVKGRFTISRDNAKNTVYLNMNSLIPEDTAVYYCSARYFYLFRPTEYYYWGQGTQVTVSS	high polyreactivity
QVQLVESGGGLVQAGGSLRLSSAASGFTFVRYTMGWYRQAPGKERELVAAINASGDRTYYADSVKGRFTISRDNAKNTVYLQMNCLIPEDTAVFYCAAGSSLYYSHMGYWGQGTQVTVSS	high polyreactivity
QVQLVESGGGLVQAGGSLRLSSAASGFTFVRYTMGWYRQAPGKERELVAVIRRGGSTYYADSVKGRFTISRDNAKNTVYLQMNSLKPEDTAVYYCNALSALAVEDGYWGLGTQVTVSS	low polyreactivity
QVQLVESGGGLVQAGGSLRLSSAASGFTLGYYAMGWYRQAPGKEREMVAAIRSSGTRTYYADSVKGRFTISRDNAKYTVYLLMNSLKPEDTAVYYCAARTPSYEMDYWGQGTQVTVSS	high polyreactivity
QVQLVESGGGLVQAGGSLRLSSAASGFTLSRYAMGWYRQAPGKERELVASITSGGSTNYADSVKGRFTISRDNAKNTVYLQMNSLKPEDTAVYYCAARYPYRSYKLSHSYARPYGYWGQGTQVTVSS	high polyreactivity
QVQLVESGGGLVQAGGSLRLSSAASGFTYYFYAMGWYRQAPGKERELVAGISTSGTSTYYADSVKGRFTISRDNAKNTVYFQMNRLKPEDTAVSYCAKRGDAIVPTSSKGNYWGQGTQVTVSS	low polyreactivity
QVQLVESGGGLVQAGGSLRLSSAASGIFSYYAIGWYRQAPGKERELVAAISSSGGSTYYADSVKGRFTISRDNAKNTVYLQMNSLKPEDTAVYYCAVSGGTSRRYYYWGLGTQVTVSS	high polyreactivity
QVQLVESGGGLVQAGGSLRLSSAASGIFWNYAMGWYRQAPGKERELVAAISGSGGSTYYADSVKGRFTISRDNAKNTVYLQINSLKPEDTAVYYCAAEPGNHIWIYDYWGQGTQVTVSS	low polyreactivity
QVQLVESGGGLVQAGGSLRLSSAASGIIFRDNAMGWYRQAPGKERELVAAIDSSGGTTYADSVKGRFTISRDNAKNTVYLQMNSLKPEDTAVYYCATEVYWTVSYYGYDYYGGNYYYWGQGTQVTVSS	low polyreactivity
QVQLVESGGGLVQAGGSLRLSSAASGITFRRYAMVWYRQAPGKERELVASITRGGSTSYADSVKGRFTISRDNAKNTVYLQMNSLKPEDTAVYYCNTRFGYQFDYYYWGQGTQVTVSS	high polyreactivity
QVQLVESGGGLVQAGGSLRLSSAASGITFYINAMGWYRPAPGKERELVAALSWPRGSTYYADSVKGRFTISRDNAKNTVYLQMNSLKPEDTAVYYCAGVAYFELSGGGLEYGYDYWGQGTQVSVSS	high polyreactivity
QVQLVESGGGLVQAGGSLRLSSAASGITFYWYAMGWYRQAPGKERELVAASTRSVGSTYYADSVNGRFTISRDNAKNTVYLQMNSLKPEDTAVYYCAADFYYYGFDYWGQGTQVTVSS	low polyreactivity

Reference: the nanobody polyreactivity screen of Harvey et al. (2022)
